Measured values: patent US20110123511

Columns and labels:
[1] = target: H3 peptide containing residues 15-30
[2] = target: GST-fusion histone H3 peptide (residues 1-57), wild-type
[3] = target: GST-fusion histone H3 peptide (residues 1-57), K27R mutant [GST: P08515]
[4] = target: peptide containing H3 residues 1-20
[5] = target: full-length free histone H3 (individual core histone)

B1: recombinant wild-type vSET expressed in E. coli BL21 (protein)
chain: MFNDRVIVKKSPLGGYGVFARKSFEKGELVEECLCIVRHNDDWGTALEDYLFSRKNMSAMALGFGAIFNHSKDPNARHELTAGLKRMRIFTIKPIAIGEEITISYGDDYWLSRPRLTQN
histone methyltransferase activity (core histone H2A): confirming its activity for full-length free H3 and H3 within the nucleosome, but not other core histones
methylation activity with H3 peptides (14C-methyl-SAM) [1]: Like vSET, these viral SET proteins only methylated a H3 peptide containing residues 15-30 but not a peptide containing H3 residues 1-20
methylation assay (methyl transfer from 14C-methyl-SAM) [2]: The methylation assay showed that vSET was only active when H3 contained K27
methylation assay (methyl transfer from 14C-methyl-SAM) [3]: The methylation assay showed that vSET was only active when H3 contained K27
histone methyltransferase activity (core histone H2B): confirming its activity for full-length free H3 and H3 within the nucleosome, but not other core histones
methylation activity with H3 peptides (14C-methyl-SAM) [4]: Like vSET, these viral SET proteins only methylated a H3 peptide containing residues 15-30 but not a peptide containing H3 residues 1-20
histone methyltransferase activity [5]: confirming its activity for full-length free H3 and H3 within the nucleosome, but not other core histones
histone methyltransferase activity (core histone H4): confirming its activity for full-length free H3 and H3 within the nucleosome, but not other core histones
